For orientation: Kd means the equilibrium constant for the complex coming apart. High values mean a looser complex, low ones a tighter complex. One may read the koff as the rate constant with which the complex falls apart. A lower koff goes with slow dissociation. In general, kon refers to a measure of how fast the partners come together. A high value points to faster complex formation.

Data on one molecule can be found in CN113583112A.

Assay [1] deals with AAVXL32.1蛋白衣壳. The assay can be described thus: BLI (Fortebio), mAb002 on protein G biosensor, antigen at 0.2813 nM. (Biolayer interferometry detects binding as a change in optical thickness at a sensor tip.)
Assay [2] concerns the target AAVXL32.1蛋白衣壳. The assay can be described thus: BLI (Fortebio), mAb002 on protein G biosensor, antigen at 0.5625 nM.
The target of assay [3] is AAVXL32.1蛋白衣壳. The assay can be described thus: BLI (Fortebio), mAb002 2 ug/ml on protein G biosensor, antigen at 2.25 nM in PBS.
The target in assay [4] is AAVXL32.1蛋白衣壳. The assay can be described thus: BLI (Fortebio), mAb002 on protein G biosensor, antigen at 2.25 nM.
Assay [5] deals with AAVXL32.1蛋白衣壳. In words: BLI (Fortebio), mAb002 on protein G biosensor, antigen at 0.0703 nM.
The target of assay [6] is AAVXL32.1蛋白衣壳. The assay can be described thus: BLI (Fortebio), mAb002 2 ug/ml on protein G biosensor, antigen at 0.0703 nM in PBS.
Assay [7] deals with AAVXL32.1蛋白衣壳. In words: BLI (Fortebio), mAb002 2 ug/ml on protein G biosensor, antigen at 0.5625 nM in PBS.
For assay [8], the target named is AAVXL32.1蛋白衣壳. In words: BLI (Fortebio), mAb002 2 ug/ml on protein G biosensor, antigen at 1.13 nM in PBS.
Assay [9] has as its target AAVXL32.1蛋白衣壳. In words: BLI (Fortebio), mAb002 on protein G biosensor, antigen at 0.1406 nM.
Assay [10] has as its target AAVXL32.1蛋白衣壳. The assay can be described thus: BLI (Fortebio), mAb002 2 ug/ml on protein G biosensor, antigen at 0.2813 nM in PBS.
The target in assay [11] is AAVXL32.1蛋白衣壳. In words: BLI (Fortebio), mAb002 on protein G biosensor, antigen at 1.13 nM.
For assay [12], the target named is AAVXL32.1蛋白衣壳. In words: BLI (Fortebio), mAb002 2 ug/ml on protein G biosensor, antigen at 0.1406 nM in PBS.

B1: mAb002抗体 (antibody, V domains shown)
VH: QVQLQQPGAELVRPGTSVKLSCKASGYTFISYWMHWVKQRPGQGLEWIGVIDPSDSYTNYNQKFKGKATLTVDTSSSTAYMQLSSLTSEDSAVYYCARYYYGSSRYFDVWGTGTTVTVSS
VL: YIQMTQTTSSLSASLGDRVTISCRASQDISNYLNWYQQKPDGTVKVLIYYTSRLHSGVPSRFSGSGSGTDYSLTISNLEQEDIATYFCQQSYTLPWTFGGGTKLEIK
With B1, the Kd with AAVXL32.1蛋白衣壳 [1], in the assay with AAVXL32.1蛋白衣壳 [2], with AAVXL32.1蛋白衣壳 [4], in the assay with AAVXL32.1蛋白衣壳 [5], with AAVXL32.1蛋白衣壳 [9] and in the assay with AAVXL32.1蛋白衣壳 [11] was less than 1 pM in each case. Besides, the off-rate (koff) in the assay with AAVXL32.1蛋白衣壳 [1], with AAVXL32.1蛋白衣壳 [2], with AAVXL32.1蛋白衣壳 [4], in the assay with AAVXL32.1蛋白衣壳 [5], with AAVXL32.1蛋白衣壳 [9] and in the assay with AAVXL32.1蛋白衣壳 [11] was less than 1e-07 s⁻¹ throughout. Also, the association rate constant (kon) in the assay with AAVXL32.1蛋白衣壳 [1], with AAVXL32.1蛋白衣壳 [2], with AAVXL32.1蛋白衣壳 [4], with AAVXL32.1蛋白衣壳 [5], with AAVXL32.1蛋白衣壳 [9] and in the assay with AAVXL32.1蛋白衣壳 [11] was 3.26e+06 M⁻¹ s⁻¹ in each case. For the same molecule, the 响应 worked out at 5.91 with AAVXL32.1蛋白衣壳 [3]; 0.338 in the assay with AAVXL32.1蛋白衣壳 [6]; 2.68 in the assay with AAVXL32.1蛋白衣壳 [7]; 4.83 in the assay with AAVXL32.1蛋白衣壳 [8]; 1.4 in the assay with AAVXL32.1蛋白衣壳 [10]; 0.701 with AAVXL32.1蛋白衣壳 [12].
